Test results from publication PMC3448830.

Legend:
Conditions in all cases: other: substrate, Hanes-Woolf plots, pH 8.5, room temperature, 16 h
NCCCC(=O)O = test: purified protein, by the assay type
NCc1coc(C(=O)O)c1 = test: Substrate activity for GABA-AT; type: biochemical, pig
NCc1csc(C(=O)O)c1 = test: Substrate activity for GABA-AT; type: biochemical, pig
NCc1cocc1C(=O)O = test: Substrate activity for GABA-AT; type: biochemical, pig
NCc1ccc(C(=O)O)[nH]1 = test: Substrate activity for GABA-AT; type: biochemical, pig
NCc1ccc(C(=O)O)s1 = test: Substrate activity for GABA-AT; type: biochemical, pig
NCc1c[nH]c(C(=O)O)c1 = test: Substrate activity for GABA-AT; type: biochemical, pig
NCc1ccc(C(=O)O)o1 = test: Substrate activity for GABA-AT; type: biochemical, pig

GABA-AT (Sus scrofa) was tested, and the Km (NCCCC(=O)O) was 1300 ± 300 µM, the kcat (NCCCC(=O)O) was 0.817 s⁻¹ and the kcat/Km (NCCCC(=O)O) was 643 M⁻¹ s⁻¹. For the same substance, the Km (NCc1coc(C(=O)O)c1) was 310 ± 70 µM, the kcat (NCc1coc(C(=O)O)c1) was 3.83e-05 ± 1.67e-06 s⁻¹ and the kcat/Km (NCc1coc(C(=O)O)c1) was 0.123 M⁻¹ s⁻¹. For the same substance, the Km (NCc1csc(C(=O)O)c1) was 1700 ± 300 µM, the Km (NCc1cocc1C(=O)O) was 2800 ± 500 µM and the kcat (NCc1cocc1C(=O)O) was 1.38e-05 ± 8.33e-07 s⁻¹. For the same substance, the kcat/Km (NCc1cocc1C(=O)O) was 0.005 M⁻¹ s⁻¹, the Km (NCc1ccc(C(=O)O)[nH]1) was 9500 ± 300 µM and the kcat (NCc1ccc(C(=O)O)[nH]1) was 2.5e-05 ± 3.33e-06 s⁻¹. For the same substance, the kcat/Km (NCc1ccc(C(=O)O)[nH]1) was 0.00267 M⁻¹ s⁻¹, the Km (NCc1ccc(C(=O)O)s1) was 6300 ± 200 µM and the kcat (NCc1ccc(C(=O)O)s1) was 0.000167 ± 5e-05 s⁻¹. For the same substance, the kcat/Km (NCc1ccc(C(=O)O)s1) was 0.0267 M⁻¹ s⁻¹, the Km (NCc1c[nH]c(C(=O)O)c1) was 1400 ± 300 µM and the kcat (NCc1c[nH]c(C(=O)O)c1) was 5.67e-05 ± 5e-06 s⁻¹. The kcat/Km (NCc1c[nH]c(C(=O)O)c1) was 0.04 M⁻¹ s⁻¹, the Km (NCc1ccc(C(=O)O)o1) was 2100 ± 100 µM and the kcat (NCc1ccc(C(=O)O)o1) was 0.000567 ± 6.67e-05 s⁻¹. The kcat/Km (NCc1ccc(C(=O)O)o1) was 0.267 M⁻¹ s⁻¹.
